Test results: the supplement of paper PMC12042874
± gives the uncertainty stated by the source.

test: amyloid nucleation score (Sup35N fusion, yeast selection) (log enrichment); library NNK2; higher = more nucleation; inactive = no reads after selection
How it was run: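 Using DiMSum, nucleation scores were taken as the log enrichment of output over input reads, centred on the mode score of non-aggregating sequences. The input and output reads came from Illumina sequencing of plasmid inserts, with sequences under 100 input reads excluded. The yeast were psi-negative, expressed Sup35N fused to peptides of 20 random codons, were induced with 100 μM copper sulfate for 24 hours, and were grown 7 days at 30°C on medium lacking adenine and uracil.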

| Substance | amyloid nucleation score |
| --- | --- |
| FCGIGSPHYGRSAALQLRLM | 0.708 ± 0.37 |
| FCISFYTNIPSDS | -0.836 ± 0.55 |
| FCKFMSCESRPCNIMKCWGV | 0.276 ± 0.6 |
| FCLLIGLLFTYWLSINFAIT | inactive |
| FCLTVLVV | 4.18 ± 0.11 |
| FCPRGFTLSSKFLCLNSLRM | -0.344 ± 0.33 |
| FCSSFEEYICLNYVIRSEWM | 3.82 ± 0.095 |
| FCVIPIKGQRSLHIPVQLFG | -1.07 ± 0.76 |
| FDGRETQENGNSYMCEGW | 0.419 ± 0.5 |
| FDVESMSNDLMAQWHKMLAC | -0.452 ± 0.48 |
| FDVVIGMFVNLITRSKCGEW | 1.61 ± 0.53 |
| FDWNVDDYTFIYDN | -2.38 ± 0.75 |
| FDWQRLMG | 0.196 ± 0.64 |
| FEACVTGMLSDRF | -0.871 ± 0.41 |
| FEFSPQSRCTGFLSVVCMVE | 0.042 ± 0.5 |
| FESTAGTDKLRTEHLDPFAD | inactive |
| FEYNRF | 0.691 ± 0.8 |
| FFCGMRPYVLVNCLCVFREN | 6.374 ± 0.029 |
| FFFFTNRVTKAVSYGYLMDD | -0.491 ± 0.63 |
| FFGICDVYSDMNFPIYTAY | inactive |
| FFGLFFNFLLMLINLPKCIV | -1.78 ± 0.75 |
| FFLAPKGKTSYGRGN | inactive |

| Substance | amyloid nucleation score |
| --- | --- |
| FFMLYYGYLLSVRDSCSLCI | -0.017 ± 0.76 |
| FFMPKGTLRSIGSLFR | -1.65 ± 1.1 |
| FFQGSVSLCFQASHQWSFLI | 3.06 ± 0.11 |
| FFRGDVQYWRLILKYLCLLM | -1.28 ± 0.49 |
| FFRVRPFISYYWHTLLSVLW | -1.24 ± 1.1 |
| FFSDVIRFWNKHTCKINLLR | -1.33 ± 1 |
| FFSNRNCLE | -1.34 ± 0.64 |
| FFSRFERPLQCNIFKL | 4.13 ± 0.12 |
| FFSRTKYDSSRLKPWGMDIS | 0.523 ± 0.64 |
| FFSVSNDHPSFFPANVGEVH | 1.74 ± 0.25 |
| FFTLVVTVLPRRFYRFNYR | 0.043 ± 1 |
| FFVKNASSSFFLLKRLSWT | -0.59 ± 1.1 |
| FFWNAGCSELFGEGHYNSLL | inactive |
| FFWYWYASYEHARTSYSIRV | inactive |
| FGAFVYWVFSIAYTLSRGSR | -1.03 ± 0.6 |
| FGDSDRMRAGRLWFMWSLVA | 0.639 ± 0.35 |
| FGESTSEGYA | 3.33 ± 0.12 |
| FGFIYGTRVEGLSIVSRQSR | 2.36 ± 0.14 |
| FGISSNATRDWRLFDHRAVG | 0.637 ± 0.47 |
| FGKVRESCCLLAY | 0.489 ± 0.3 |
| FGLMLRTS | 0.062 ± 0.41 |
| FGLSITECGWVVLCMVWVPR | 0.246 ± 0.17 |

| Substance | amyloid nucleation score |
| --- | --- |
| FGLVHRIPRFVLWILSLGSG | -0.012 ± 1.1 |
| FGLYRVRGRSEYRVDHTGWG | 0.534 ± 0.51 |
| FGMFM | -0.228 ± 0.32 |
| FGNALA | -1.15 ± 0.61 |
| FGNVMMTDAV | -0.631 ± 0.46 |
| FGQIRCWYTMICYGQDIGFT | 6.37 ± 0.047 |
| FGRRYIMLRKYIDVIDLSIH | -0.843 ± 0.76 |
| FGSIHGGRDEGPFLLGSSNV | -0.675 ± 1.1 |
| FGVRDDILDSWCCTVCFSGK | 0.369 ± 0.65 |
| FGYYQLYNDQGGYYPMSSAS | inactive |
| FHEDRERGTIFDEFMIFRN | -0.945 ± 0.76 |
| FHINAFISTWFSDNFCFCDY | 1.31 ± 0.22 |
| FHIQTRCMCGGMRYIFYVWY | 0.432 ± 0.8 |
| FHPPTGPPYINEMIGASTDR | -0.069 ± 0.27 |
| FHPVWSLRKLFDCPDWTLAR | 1.23 ± 0.12 |
| FHYRFFVVMIRGCSFWHFQL | -1.57 ± 0.49 |
| FIAGLS | -0.734 ± 0.76 |
| FICYNTRRVVCIYLRL | 0.456 ± 0.74 |
| FIDPGHFTLDLGCSPPESEV | 4.5 ± 0.085 |
| FIDVHMEYRDKTRCWLVLVL | -0.891 ± 0.78 |
| FIEHT | -0.716 ± 0.45 |
| FIIDWSVKFGICSICLAT | 5.448 ± 0.042 |

| Substance | amyloid nucleation score |
| --- | --- |
| FILDAVGNFFCFVRHTTPQV | 0.106 ± 1 |
| FILQQAYGDWFTVDSNSCIM | -1.64 ± 1.1 |
| FILVYTRPTLESLGEWWIRC | -0.628 ± 0.63 |
| FIMCSDYPYHITPYPWLGPG | -0.59 ± 0.37 |
| FINCSHQCHSIGIRVLLNCR | 0.915 ± 0.19 |
| FIPYKYAVHSS | 0.166 ± 0.62 |
| FISHIYLNESQQKSSALNTL | -1.32 ± 0.53 |
| FISNYLMPV | 2.1 ± 0.12 |
| FISRVMVSGVLTGLAWPM | 0.151 ± 0.43 |
| FISSMGRVW | -1 ± 0.55 |
| FITHKDYLFAGQ | -1.16 ± 0.76 |
| FITNFGACRYCCRWHM | 6.184 ± 0.042 |
| FIVCALIKEHILTYPGKVFV | inactive |
| FIYCVTFVDDCRYVINLRGT | 7.964 ± 0.079 |
| FIYQFHVVFLVCQGHNNLYT | 3.6 ± 0.071 |
| FKFTWRTFESNNLMVRVWLL | -1.29 ± 0.55 |
| FKFYSRSAYSHHRFSIYCDR | -1.22 ± 1.1 |
| FKILCFSHGNNRM | 2.07 ± 0.19 |
| FKLFMLSSFSLMM | 0.182 ± 1.1 |
